Decrease in survival response of embryonic rat spinal motoneurons to NTN after PIPLC treatment and Kd data for two molecules are collected here from patent publication US6342348.

Assay [1] deals with T1, rat NTNRα, endogenous, on embryonic rat spinal motoneurons (rat).
T1 sequence (chain, GPI-linked): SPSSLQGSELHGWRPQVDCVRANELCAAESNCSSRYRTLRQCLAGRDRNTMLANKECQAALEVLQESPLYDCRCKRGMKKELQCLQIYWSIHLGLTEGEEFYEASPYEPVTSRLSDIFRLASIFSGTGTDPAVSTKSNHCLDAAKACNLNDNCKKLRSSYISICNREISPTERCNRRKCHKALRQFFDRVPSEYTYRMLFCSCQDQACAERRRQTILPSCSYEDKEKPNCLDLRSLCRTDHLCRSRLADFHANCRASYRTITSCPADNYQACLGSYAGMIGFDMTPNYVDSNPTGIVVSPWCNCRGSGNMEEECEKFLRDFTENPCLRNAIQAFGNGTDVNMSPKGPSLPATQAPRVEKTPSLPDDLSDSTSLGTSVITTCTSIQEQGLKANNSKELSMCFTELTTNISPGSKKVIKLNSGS
Briefly: cell-based or functional assay.

Assay [2] concerns the target T2, recombinant soluble rat GDNFRα (rat) (UniProt Q62997).
T2 sequence (looked up): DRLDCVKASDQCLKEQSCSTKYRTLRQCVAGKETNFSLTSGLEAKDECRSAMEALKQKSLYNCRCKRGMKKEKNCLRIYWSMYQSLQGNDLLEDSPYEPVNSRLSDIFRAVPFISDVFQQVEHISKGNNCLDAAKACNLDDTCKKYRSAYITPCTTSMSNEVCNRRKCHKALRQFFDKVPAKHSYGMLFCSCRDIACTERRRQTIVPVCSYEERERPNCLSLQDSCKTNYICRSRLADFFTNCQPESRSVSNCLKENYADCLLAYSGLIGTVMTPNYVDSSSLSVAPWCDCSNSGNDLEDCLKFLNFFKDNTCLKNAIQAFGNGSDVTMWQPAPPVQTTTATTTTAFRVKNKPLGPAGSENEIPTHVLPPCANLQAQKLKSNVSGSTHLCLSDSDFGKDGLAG
In words: binding experiments with biotinylated ligand (format not described).

The target of assay [3] is T2, recombinant soluble rat GDNFRα (rat). Briefly: displacement of labelled rGDNF from soluble GDNFRα by unlabeled NTN (10 nm).
In assay [4] the target is rat NTNRα-IgG fusion protein (soluble rNTNRα) (rat). In words: binding experiments with biotinylated ligand (format not described); 'and vice versa'.

The Kd is a measure of binding affinity in units of concentration.

B1: Neurturin (NTN), species not stated (ligand, UniProt Q99748 96-197, looked up, species assumed)
Neurturin: ARLGARPCGLRELEVRVSELGLGYASDETVLFRYCAGACEAAARVYDLGLRRLRQRRRLRRERVRAQPCCRPTAYEDEVSFLDAHSRYHTVHELSARECACV
In assay [1], B1 had a decrease in survival response of embryonic rat spinal motoneurons to NTN after PIPLC treatment of 50 to 90%. Further, the Kd in assay [2] was over 1000 µM; in assay [3] it was over 0.001 µM.

B2: GDNF, species not stated (ligand, UniProt P39905 78-211, looked up, species assumed)
Glial cell line-derived neurotrophic factor: SPDKQMAVLPRRERNRQAAAANPENSRGKGRRGQRGKNRGCVLTAIHLNVTDLGLGYETKEELIFRYCSGSCDAAETTYDKILKNLSRNRRLVSDKVGQACCRPIAFDDDLSFLDDNLVYHILRKHSAKRCGCI
As to B2, the Kd in assay [4] is over 1000 µM.
